Measurements published in US20220153819A1 (Regeneron, published 2022).
Values joined by “and” are separate entries in the source; they are usually repeats but may differ in a detail not shown here. Equal entries are not always repeated. Where two headings read alike, the source gives them in different places.

Key:
[1] = target: T1, hemagglutinin (HA) on A/Puerto Rico/08/1934 (H1N1)-infected MDCK cells (Influenza A virus A/Puerto Rico/08/1934 …, UniProt P03452 18-565); experiment: cell-based or functional assay
[2] = target: T1, hemagglutinin (HA) on A/Puerto …; experiment: cell ELISA on fixed A/Puerto Rico/08/1934 (H1N1)-infected MDCK cells
biotinylated human C1q [3] = target: T2, biotinylated human C1q (human, UniProt P02745 23-245; P02746 28-253; P02747 29-245)
T2 construct: also called Bt hC1q; bt-hC1q
T2 sequence (P02745 23-245, chain 1 of 3): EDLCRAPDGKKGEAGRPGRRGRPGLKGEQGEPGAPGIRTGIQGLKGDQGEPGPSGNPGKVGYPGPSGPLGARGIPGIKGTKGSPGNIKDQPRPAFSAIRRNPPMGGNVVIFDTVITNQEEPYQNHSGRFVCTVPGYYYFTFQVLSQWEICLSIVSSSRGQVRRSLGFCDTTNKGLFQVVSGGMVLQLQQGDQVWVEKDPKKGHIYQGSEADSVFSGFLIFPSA
T2 sequence (P02746 28-253, chain 2 of 3): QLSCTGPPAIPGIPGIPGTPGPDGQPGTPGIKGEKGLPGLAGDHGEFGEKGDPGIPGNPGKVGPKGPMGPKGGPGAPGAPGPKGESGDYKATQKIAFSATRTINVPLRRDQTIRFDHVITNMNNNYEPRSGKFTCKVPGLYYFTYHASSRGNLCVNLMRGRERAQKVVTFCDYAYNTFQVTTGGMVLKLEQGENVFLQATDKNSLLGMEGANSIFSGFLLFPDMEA
T2 sequence (P02747 29-245, chain 3 of 3): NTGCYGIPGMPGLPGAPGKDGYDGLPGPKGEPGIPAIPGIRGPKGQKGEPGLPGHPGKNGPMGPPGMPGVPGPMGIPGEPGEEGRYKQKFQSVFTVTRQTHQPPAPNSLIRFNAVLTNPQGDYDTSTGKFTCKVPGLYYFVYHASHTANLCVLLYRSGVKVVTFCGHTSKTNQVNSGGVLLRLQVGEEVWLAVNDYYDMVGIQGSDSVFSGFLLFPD

[4] = target: T3, human complement component 1q (C1q) (human, UniProt P02745 23-245; P02746 28-253; P02747 29-245); experiment: SPR (Biacore T200), 37C; bsAb captured via anti-human F(ab')2, hC1q injected
T3 construct: also called hC1q; human C1q (Quidel)
T3 sequence (P02745 23-245, chain 1 of 3): as the sequence (P02745 23-245, chain 1 of 3) above
T3 sequence (P02746 28-253, chain 2 of 3): as the sequence (P02746 28-253, chain 2 of 3) above
T3 sequence (P02747 29-245, chain 3 of 3): as the sequence (P02747 29-245, chain 3 of 3) above

[5] = target: T3, human complement component 1q (C1q); experiment: SPR (Biacore T200), 25C; bsAb captured via anti-human F(ab')2, hC1q injected
biotinylated human C1q [6] = target: T2, biotinylated human C1q; remark: listed apart in the source
hGITR.mmh [7] = target: T4, hGITR.mmh (human)
T4 chain: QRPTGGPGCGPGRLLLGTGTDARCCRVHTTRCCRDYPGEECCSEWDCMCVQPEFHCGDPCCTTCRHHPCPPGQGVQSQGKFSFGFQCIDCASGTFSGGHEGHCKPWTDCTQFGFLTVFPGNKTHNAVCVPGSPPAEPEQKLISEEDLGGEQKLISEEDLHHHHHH

hGITR.mmh [8] = target: T4, hGITR.mmh
hGITR.mmh [9] = target: T4, hGITR.mmh
biotinylated human C1q [10] = target: T2, biotinylated human C1q
[11] = target: T3, human complement component 1q (C1q)
biotinylated human C1q [12] = target: T2, biotinylated human C1q; remark: listed apart in the source
[13] = target: T3, human complement component 1q (C1q); remark: listed apart in the source
[14] = target: T5, human GITR on Jurkat/hGITR/hCD20 cells (human, UniProt Q9Y5U5 26-241)
T5 sequence (looked up): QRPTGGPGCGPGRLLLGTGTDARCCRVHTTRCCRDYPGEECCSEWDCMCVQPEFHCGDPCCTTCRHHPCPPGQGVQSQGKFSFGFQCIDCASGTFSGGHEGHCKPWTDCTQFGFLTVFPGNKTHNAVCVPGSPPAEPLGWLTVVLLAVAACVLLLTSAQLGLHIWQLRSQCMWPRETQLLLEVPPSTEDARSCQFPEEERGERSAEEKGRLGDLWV

[15] = target: T3, human complement component 1q (C1q); remark: listed apart in the source
IsdA.6×(His) = target: T6, IsdA.6×(His) (Staphylococcus aureus, UniProt A6QG31 47-316); experiment: SPR (Biacore), 37C; IsdA.6xHis captured, bsAb injected
T6 sequence: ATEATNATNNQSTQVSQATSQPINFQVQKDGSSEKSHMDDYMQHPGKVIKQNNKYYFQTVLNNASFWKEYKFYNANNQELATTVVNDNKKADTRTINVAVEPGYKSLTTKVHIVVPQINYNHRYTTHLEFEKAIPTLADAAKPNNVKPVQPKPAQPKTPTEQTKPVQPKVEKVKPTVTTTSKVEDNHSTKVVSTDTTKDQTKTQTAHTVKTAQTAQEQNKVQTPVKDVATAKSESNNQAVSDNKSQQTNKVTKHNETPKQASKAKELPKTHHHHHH

CD20 on Raji cells [16] = target: T7, CD20 on Raji cells (human, UniProt P11836 1-297)
T7 sequence (looked up): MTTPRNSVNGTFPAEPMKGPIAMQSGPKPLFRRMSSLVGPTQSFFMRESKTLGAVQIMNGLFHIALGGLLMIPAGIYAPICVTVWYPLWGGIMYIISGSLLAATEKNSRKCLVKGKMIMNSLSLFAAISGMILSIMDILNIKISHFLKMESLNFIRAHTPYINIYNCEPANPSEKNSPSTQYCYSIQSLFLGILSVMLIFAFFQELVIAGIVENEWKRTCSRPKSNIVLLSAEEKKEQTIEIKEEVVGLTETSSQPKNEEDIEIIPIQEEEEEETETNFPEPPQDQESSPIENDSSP

CD20 on Raji cells [17] = target: T7, CD20 on Raji cells; remark: listed apart in the source
IsdB.6×(His) = IsdB.6×(His) (Staphylococcus aureus, UniProt A6QG30 41-613); experiment: SPR (Biacore T200), 37C; antibody captured, IsdB.6xHis injected

B1: mAb11829, parental anti-HA bivalent antibody (antibody, V domains shown)
VH: QVHLVQSGPEVKKPGSSVKVSCKASGVTFISHAISWVRQAPGQGLEWVGGIIAIFGTTNYAQKFQGRVTVTTDKSTNTVYMELSRLRSEDTAIYYCARGETYYEGNFDFWGQGTLVTVSS
VL: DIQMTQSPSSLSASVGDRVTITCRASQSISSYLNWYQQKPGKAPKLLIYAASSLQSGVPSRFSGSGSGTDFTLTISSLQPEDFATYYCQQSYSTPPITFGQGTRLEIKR
notes: also called Flu A, group 1 HA; parental HA bivalent antibody
CDC EC50 (H1N1-infected MDCK cells) [1]: 20.8 nM | Maximum percent specific lysis (CDC of H1N1-infected MDCK cells) [1]: 35.8% | EC50 [2]: 1.46 nM | Maximum binding (RLUs) [2]: 788000 RLU

B2: mAb27250, one-arm parental HA antibody (antibody, V domains shown)
VH: B1 VH
VL: not shown
notes: also called Flu A, group 1, one arm
CDC EC50 (H1N1-infected MDCK cells) [1]: 20.7 nM | Maximum percent specific lysis (CDC of H1N1-infected MDCK cells) [1]: 39% | EC50 [2]: 0.648 nM | Maximum binding (RLUs) [2]: 719000 RLU

B3: REGN6093, anti-Influenza HA x anti-C1q bispecific antibody (bispecific antibody, V domains shown)
VH 1: B1 VH
VH 2: EVQLVESGGGVVQPGGSLRLSCAASGFSLDDYAMHWVRQTPGKGLEWVSLISGDGSRTSYADSVKGRFTISRDNSKNSLYLKMNSLRTEDTALYYCTKDPHNSNWFDPWGQGTLVTVSS
VL: not shown
notes: also called FluA group 1 x C1q bispecific; anti-HA x anti-C1q
Kd (biotinylated human C1q [3]): 327 nM | koff (biotinylated human C1q [3]): 0.0309 s⁻¹ | kon (biotinylated human C1q [3]): 94600 M⁻¹ s⁻¹ | t1/2 (biotinylated human C1q [3]): 0.37 min | CDC EC50 (H1N1-infected MDCK cells) [1]: 10.5 nM | Maximum percent specific lysis (CDC of H1N1-infected MDCK cells) [1]: 30% | Kd [4]: 1.11 nM | koff [4]: 0.00401 s⁻¹ | kon [4]: 3.61e+06 M⁻¹ s⁻¹ | t1/2 [4]: 2.9 min | EC50 [2]: 1.84 nM | Maximum binding (RLUs) [2]: 849000 RLU | Kd [5]: 0.451 nM | koff [5]: 0.00216 s⁻¹ | kon [5]: 4.8e+06 M⁻¹ s⁻¹ | t1/2 [5]: 5.3 min | Kd (biotinylated human C1q [6]): 516 nM | koff (biotinylated human C1q [6]): 0.0937 s⁻¹ | kon (biotinylated human C1q [6]): 182000 M⁻¹ s⁻¹ | t1/2 (biotinylated human C1q [6]): 0.12 min

B4: REGN6545, anti-GITR x anti-C1q bispecific antibody (bispecific antibody, V domains shown)
VH 1: QVQLQESGPGLVKPSETLSLTCIVSGGSISGYFWNWIRQPPGKGLEWIGYIYYSGTTIYNPSLKSRFTISLDTSKNQFSLKLTSVTAADTAVYYCARESYNPSPRYFDHWGQGTLVTVSS
VH 2: B3 VH 2
VL: not shown
Kd (hGITR.mmh [7]): 3.3 nM | koff (hGITR.mmh [7]): 0.00229 s⁻¹ | kon (hGITR.mmh [7]): 693000 M⁻¹ s⁻¹ | Kd (hGITR.mmh [8]): 7.38 nM | koff (hGITR.mmh [8]): 0.00795 s⁻¹ | kon (hGITR.mmh [8]): 1.08e+06 M⁻¹ s⁻¹ | kon (hGITR.mmh [9]): 330000 M⁻¹ s⁻¹ and 274000 M⁻¹ s⁻¹ | Kd (biotinylated human C1q [10]): 1860 nM | koff (biotinylated human C1q [10]): 0.449 s⁻¹ | kon (biotinylated human C1q [10]): 241000 M⁻¹ s⁻¹ | Kd [11]: 0.528 nM | koff [11]: 0.00162 s⁻¹ | kon [11]: 3.07e+06 M⁻¹ s⁻¹ | Kd (biotinylated human C1q [12]): 3330 nM | koff (biotinylated human C1q [12]): 0.658 s⁻¹ | kon (biotinylated human C1q [12]): 198000 M⁻¹ s⁻¹ | Kd [13]: 1.74 nM | koff [13]: 0.00582 s⁻¹ | kon [13]: 3.34e+06 M⁻¹ s⁻¹ | EC50 [14]: 31 nM

B5: REGN5553, anti-IsdA x anti-C1q bispecific antibody (bispecific antibody, V domains shown)
VH 1: EVQLVESGGGLVQPGRSLRVSCAASGFTFDDYAMHWVRQIPGKGLEWVSGIRWNSDTIGYADSVKGRFTISRDNAKNFLYLQMNSLRTEDTALYYCVKDMRVRGIIMYGMDVWGQGTTVTVSS
VH 2: B3 VH 2
VL: not shown
notes: also called bsC1q × IsdA; bs hC1q × IsdA
Kd [15]: 1.3 nM | koff [15]: 0.00469 s⁻¹ | kon [15]: 3.62e+06 M⁻¹ s⁻¹ | Kd (IsdA.6×(His)): 3.62 nM | T1/2 (IsdA.6×(His)): 11.8 min | koff (IsdA.6×(His)): 0.000977 s⁻¹ | kon (IsdA.6×(His)): 270000 M⁻¹ s⁻¹

B6: REGN5372, anti-GITR bivalent hIgG1 antibody (antibody, V domains shown)
VH: B4 VH 1
VL: not shown
EC50 [14]: 3.07 nM

B7: REGN5177, anti-CD20 x anti-C1q bispecific antibody (bispecific antibody, V domains shown)
VH 1: QVHLVESGGGVVQPGRSLRLSCSVSGLTFNSYGMHWVRQAPGKGLEWVTMISYDGSDKYYLDSVKGRFTISRDNSKNILYLQINSLRPEDTAVYYCVNWDNWRGNFDYWGQGTLVTVSS
VH 2: B3 VH 2
VL: not shown
Kd (biotinylated human C1q [10]): 436 nM | koff (biotinylated human C1q [10]): 0.0442 s⁻¹ | kon (biotinylated human C1q [10]): 101000 M⁻¹ s⁻¹ | EC50 (CD20 on Raji cells [16]): 35.6 nM | Kd [11]: 0.688 nM | koff [11]: 0.00224 s⁻¹ | kon [11]: 3.26e+06 M⁻¹ s⁻¹ | EC50 (CD20 on Raji cells [17]): 35.7 nM | Kd [13]: 0.481 nM | koff [13]: 0.00499 s⁻¹ | kon [13]: 1.04e+07 M⁻¹ s⁻¹

B8: mAb14303, anti-CD20 parental bivalent hIgG1 antibody (antibody, V domains shown)
VH: B7 VH 1
VL: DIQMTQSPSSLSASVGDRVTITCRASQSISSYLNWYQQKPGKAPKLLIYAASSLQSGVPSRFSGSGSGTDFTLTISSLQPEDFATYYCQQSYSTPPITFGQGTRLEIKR
EC50 (CD20 on Raji cells [16]): 6.03 nM | EC50 (CD20 on Raji cells [17]): 6.03 nM

B9: Rituximab (antibody, V domains shown)
VH: QVQLQQPGAELVKPGASVKMSCKASGYTFTSYNMHWVKQTPGRGLEWIGAIYPGNGDTSYNQKFKGKATLTADKSSSTAYMQLSSLTSEDSAVYYCARSTYYGGDWYFNVWGAGTTVTVSA
VL: QIVLSQSPAILSASPGEKVTMTCRASSSVSYIHWFQQKPGSSPKPWIYATSNLASGVPVRFSGSGSGTSYSLTISRVEAEDAATYYCQQWTSNPPTFGGGTKLEIK
EC50 (CD20 on Raji cells [16]): 3.14 nM | EC50 (CD20 on Raji cells [17]): 3.14 nM

B10: REGN5409, anti-Psl x anti-C1q scFv bispecific antibody (bispecific antibody, human IgG1, lambda)
heavy: not shown
light: SSELTQDPAVSVALGQTVRITCQGDSLRSYYASWYQQKPGQAPVLVIYGKNNRPSGIPDRFSGSSSGNTASLTITGAQAEDEADYYCNSRDSSGNHVVFGGGTKLTVLGQPKAAPSVTLFPPSSEELQANKATLVCLISDFYPGAVTVAWKADSSPVKAGVETTTPSKQSNNKYAASSYLSLTPEQWKSHRSYSCQVTHEGSTVEKTVAPTECS
scFv: not shown
Kd (biotinylated human C1q [10]): 431 nM | koff (biotinylated human C1q [10]): 0.0276 s⁻¹ | kon (biotinylated human C1q [10]): 64000 M⁻¹ s⁻¹ | Kd [11]: 0.747 nM | koff [11]: 0.00262 s⁻¹ | kon [11]: 3.51e+06 M⁻¹ s⁻¹ | Kd (biotinylated human C1q [12]): 343 nM | koff (biotinylated human C1q [12]): 0.0149 s⁻¹ | kon (biotinylated human C1q [12]): 43500 M⁻¹ s⁻¹ | Kd [13]: 2.41 nM | koff [13]: 0.0116 s⁻¹ | kon [13]: 4.8e+06 M⁻¹ s⁻¹

B11: parental bivalent anti-IsdB antibody (antibody, V domains shown)
VH: EVQLVESGGGLVQPGRSLRLSCTTSGFTFDDYAMHWVRQVPGQGLEWVAGLSWNSDTIGYADSVKGRFTISRDNAKNSLYLQMKSLKAEDTALYYCTKDFYHSLNNWNYYYFDYWGQGTLVTVSS
VL: not shown
notes: also called anti-IsdB bival; bivalent IsdB antibody
Kd (IsdB.6×(His)): 1.75 nM | T1/2 (IsdB.6×(His)): 18 min | koff (IsdB.6×(His)): 0.00064 s⁻¹ | kon (IsdB.6×(His)): 365000 M⁻¹ s⁻¹

B12: REGN5536, anti-PNAG x anti-C1q scFv bispecific antibody (bispecific antibody, human IgG1, lambda)
heavy: not shown
light: QLVLTQSPSASASLGASVKLTCTLSSGHSNYAIAWHQQQPGKGPRYLMKVNRDGSHIRGDGIPDRFSGSTSGAERYLTISSLQSEDEADYYCQTWGAGIRVFGGGTKLTVLGQPKAAPSVTLFPPSSEELQANKATLVCLISDFYPGAVTVAWKADSSPVKAGVETTTPSKQSNNKYAASSYLSLTPEQWKSHRSYSCQVTHEGSTVEKTVAPTECS
scFv: not shown
Kd [15]: 0.632 nM | koff [15]: 0.0102 s⁻¹ | kon [15]: 1.61e+07 M⁻¹ s⁻¹
